Test: protease stability score; higher = more stable; yeast display proteolysis, trypsin and chymotrypsin;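 note: relative to predicted unfolded state with 0 unfolded-like and 1 meaning tenfold more protease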
For “DEDRRIAEHLIKLYLQSTRTGDENSIRHLMDPNTRVIVGDKDRIGREAAEELLRRVDHLHDYKIEDIRFVGDFIDVEMRVDGEFDGVREHYRVILILFKVDGRWRIHLIEIR”, the protease stability score was 1.55.
With “TDEKRDLDDWLHLLLHAIRTGDFRIEEKLADPNARLEFNGKEFIGMHHILNFLIEWRLHHMDIKHIEKQGDYLHIDSRLDVDFDGQRTILETHLVSLKINGRWILHSMSIG” the protease stability score was 1.28.
With “DEDRKHREHLSELFQKLWLTGDWRTLWRLLDPHVRLEVLIDGKRIEKIGRENISEMLHRFLEFLGVDHRELHDMEIQGDKVHLDERIHYNGREQKLHIEFKFINGRMHEIKIRYE” the protease stability score was 1.58.
Sequence “DERHELTRRVAVLWLHIFMTGDEDLFEKLADPTTRQEVLFNGRIYSLVGREEVSRWLREMVHELRFRHIEDKDKEIQGDKVLIDGILHIEAENHSTTIRSRIVLIVVNGKIHTIKFEFH” has a protease stability score of 1.55.
With “DEFEKDFRFAIEEWLKVVRTGDEDRAHELMDPDVKLDIGDKRHHGREEMLHHVRRADVIHDYKIKDLKFQGNYITVQGEVDGQIGDKRIRTEVRVIILKIDGVWLWRQNYER” the protease stability score was 0.907.
Sequence “DELHEERERASEVARRWVLTGNEEMLVQLADPEVRLHFNGVDFVGRETIHETLRRIHELWGVDRIEVRLKTVHIYDGVVDVHVDLHVGDKEIRDDIHLKKFNGRWEMTTRHVH” has a protease stability score of 0.348.
“SEEERETKLMDEIYQRLFKTGDEHKFLRLADPHAKFHFDGREDHGMHNSTRIWKKLNDILGLDNIRFHVRDWTVFDGVAHVDGKLVINGKEIEVKLHVVVVNGRVKSVSIEHE” gave a protease stability score of 0.924.
Sequence “SEEEELDKKAFKLWIHSLRTGDEDLITELADPRVKMTIGDKEFHGREEFKHAMHELLKRVDHIKDVKLKHWDVINGRLHVIVEVNGNVDGRETYIETSMTSLKINGRWILQSWSVR” has a protease stability score of 1.31.
With “DEDMREAVKIAHRWLQHMTTGDEESIQSLADPHTKILFNGRELHGRHVITHLIREIRIKYTHLEHRDWRVVDGQLHLDFREDLRIEFDGQVRRIEIESHFMIIKINGRWFVHEVHLR” the protease stability score was 0.636.
“DELTTLAREFLRLIKEVLETGDERTMHELADPNYRIRIGDKLVHGWEQQSELIIRIRTELGMTVKDSRIEDSHVQGDKLVVRVRLDMIQGDKKDSVDRIVRVDKINGKWIMSEIELI” showed a protease stability score of 1.49.
With “DEDEKRSEEFLNEFFHWVHTGDEEKLVKLMDPHMRLDVNGKESVGRENAFEMWHHLRIRRMDVRDIRVELVGDKAIARSDGHIDGEIDGVRIHTRVDLLLISRKVDGVWLFKSVSINSI” the protease stability score was 2.23.
Sequence “SDLEEVIRKHIEELEESRRTGDEESLWRLLDPNTLKVVGDKRIHGMEAVAEIETFHDRRVKNATDRLNLREVHTQGDKLTIRGELILDWDGVKINVHVRLEILKFDGRWIIHRIEVK” has a protease stability score of 0.715.
Sequence “SEIEERVYRVVETFWMALRTGDEETLDDLLDPNVKLDIDGKEFHGREKYKEFLELFKGVTVESVEFRDSKISGEKAIIHVHVTLRQGDKEEHKSTELVLYKINGRWIIEHVRLK” has a protease stability score of 2.21.
Sequence “DEEKEDAYRNAELWIKSINTGDEDVLTDLLDPHARIDIGDKKLHGMESFTKLYRDLGFRIKDFHLKDIRIYGEKIEIHGIIHFEQGDKEHNEDTTIILLKVNGKWIIKRLRVN” has a protease stability score of 1.5.
“SKEDEDFNERTREWLEILETGDWRKLARLLDPNVLNIVGDKEHHGREEVIKSFRTYLEKVPNMRFTTRRIRLQGDKVDLDGDLYFNGKEIKVRIFLVIYDGRVHSMEVREE” gave a protease stability score of 1.09.
“SEDEEEVRKFLKRLLRATETGNEQVLKELFDPNVRIVIGDKHLIGWDFMHTILRRVDVWVVRHIEIKRIDFQGDKLDIDGHVHYEEQIDGQRVSHKRDVKLIMLKVNGVWMFEYIIIH” showed a protease stability score of 2.45.
Sequence “SRAEEEARHLLHLLIHSLNTGDEDTSRKMLDPHVRLIIDGREHHGREDLLWFLRFLGFDHVHHVELHDLHDVNGRIKVDVKFHMFVGDKLIKTTVIYFILKINGRWVFESIKVE” has a protease stability score of 1.23.
“TEQMEWVEDIVRILVESINTGDEHVLKEMLDPNVRIHIGDKNVIGMEFIHRWLKEIRIEHLRVEISDVRFIGDKVKVRGRLKLHVDVDGRRHDVSHDVIIVFEKVDGKWFEREDRLL” gave a protease stability score of 1.23.
“DEEREKVIRFLERFQESSRTGDEETLHRLADPNVKLTVDGRELHGREVMVRYAIEWRIEDVEPKRYTEQGDKLILHVRIHTTIGDKHEVREVDLFVRKIDGRWIMEEFRVR” gave a protease stability score of 0.96.
“DERDELVEIVFRLYLRLLTTGDEQEWHHLADPDTRLHIGDKDFHGRENVNKHRRDNLERVKGIKLRDVKITQVHLIDGVLHIDIRLDVEYDGRRTELKVRVISEKVDGKWFIKSIIIE” showed a protease stability score of 1.44.
For “DEEQEILKEMAKEILHMLQTGDWKRFLELADPNVKNIVNGREVHGREIVVEYIRKMGIDHHILHDVHIQGDKIHIHGTLEVNGKRIEVEIEIVVVNGRVKMIIFILK”, the protease stability score was 2.05.
In the case of “HDMEERSKHVHHIILRSLRTGDEDAYERLADPDTRLHVGDKNIHGRESIRNIWREILERIPNMRIELELEDSEIVGDYIYLKINLRMNFDGREVEHEIRIVSLKINGRWVEKSVHFR”, the protease stability score is reported as 0.591.
Sequence “SEEEKLQREMSKRWIEEVFTGNEEVFEQLADPNTIIDINGQHLHGMETFSKWSREHIKKLGWTQFDIKMRDSKVIGNKAKLDLELHVNGKVVKVEVNLEVIDGRIKKIEERHH” has a protease stability score of -0.143.
“DEERDEARRVLEIFIKVFRTGDWHILHELADPHVRMDVNGREFIGREDYVKFFRYEMEIFGVERIDIKIHDVHVYNGRIEVHTRQNINGKERDTHLEIHKINGQWHLRDVRIH” gave a protease stability score of 1.44.
For “SEEHRLMEEIARIFIHLFLTGDEELFKHLADPNTRTHIHYGDKHIDLHGREQTTKFWKEHLDRVDHVEIRINDIRSIGDKAHIDGVLIMLVNGREHTIHIEIIVVVINGKDTEFEFRLI”, the protease stability score was 0.966.

— the NTF2 design screens of Basanta et al. (2020)
